Starred links: 1 amine or outer side, 2 acyl side, 3 side chain; linkers in the order of their positions; H or OH if unused. Positions of bridges follow the written chain, without caps; N, C: chain ends. Non-standard residues stand in square brackets, D forms with d. Primed or numbered codes have the meaning given here. PyrS2″ = (S)-3-amino-1-((pent-4-en-1-yloxy)carbonyl)pyrrolidine-3-carboxylic acid (stapling residue), C=CCCCOC(=O)N1CC[C@@](N[*:1])(C(=O)[*:2])C1; B5(5) = 2,2-bis(4-pentenyl)glycine, 2-amino-2-(pent-4-en-1-yl)hept-6-enoic acid (stitching residue), C=CCCCC(CCCC=C)(N[*:1])C(=O)[*:2]; PyrS2 = (S)-3-amino-1-((pent-4-en-1-yloxy)carbonyl)pyrrolidine-3-carboxylic acid, C=CCCCOC(=O)N1CC[C@@](N[*:1])(C(=O)[*:2])C1; B5(12) = 2-amino-2-(pent-4-en-1-yl)hept-6-enoic acid (two olefin side chains), C=CCCCC(CCCC=C)(N[*:1])C(=O)[*:2]; B5(19) = 2-amino-2-(pent-4-en-1-yl)hept-6-enoic acid (bis(4-pentenyl)glycine), C=CCCCC(CCCC=C)(N[*:1])C(=O)[*:2]; Phe(3-COOH) = N[C@@H](Cc1cccc(C(=O)O)c1)C(=O)O; Phe(2-CF3) = N[C@@H](Cc1ccccc1C(F)(F)F)C(=O)O; Phe(2-Cl) = N[C@@H](Cc1ccccc1Cl)C(=O)O; Bta = N[C@@H](Cc1csc2ccccc12)C(=O)O; αAllylPro = C=CC[C@@]1(C(=O)O)CCCN1; tBuAla = CC(C)(C)C[C@H](N)C(=O)O; Gly(cBu) = N[C@H](C(=O)O)C1CCC1; 3Thi = N[C@@H](Cc1ccsc1)C(=O)O; S8 = C=CCCCCCC[C@](C)(N)C(=O)O; hSer = N[C@@H](CCO)C(=O)O; Nle = CCCC[C@H](N)C(=O)O
Molecular target: full-length beta-Catenin (Uniprot ID P35222) (Homo sapiens (Human)) (UniProt P35222)
Experiment: FP competition; full-length beta-catenin, competitor 5FAM-TCF4(10-53)
Target sequence in this assay (P35222 whole entry, one chain of several): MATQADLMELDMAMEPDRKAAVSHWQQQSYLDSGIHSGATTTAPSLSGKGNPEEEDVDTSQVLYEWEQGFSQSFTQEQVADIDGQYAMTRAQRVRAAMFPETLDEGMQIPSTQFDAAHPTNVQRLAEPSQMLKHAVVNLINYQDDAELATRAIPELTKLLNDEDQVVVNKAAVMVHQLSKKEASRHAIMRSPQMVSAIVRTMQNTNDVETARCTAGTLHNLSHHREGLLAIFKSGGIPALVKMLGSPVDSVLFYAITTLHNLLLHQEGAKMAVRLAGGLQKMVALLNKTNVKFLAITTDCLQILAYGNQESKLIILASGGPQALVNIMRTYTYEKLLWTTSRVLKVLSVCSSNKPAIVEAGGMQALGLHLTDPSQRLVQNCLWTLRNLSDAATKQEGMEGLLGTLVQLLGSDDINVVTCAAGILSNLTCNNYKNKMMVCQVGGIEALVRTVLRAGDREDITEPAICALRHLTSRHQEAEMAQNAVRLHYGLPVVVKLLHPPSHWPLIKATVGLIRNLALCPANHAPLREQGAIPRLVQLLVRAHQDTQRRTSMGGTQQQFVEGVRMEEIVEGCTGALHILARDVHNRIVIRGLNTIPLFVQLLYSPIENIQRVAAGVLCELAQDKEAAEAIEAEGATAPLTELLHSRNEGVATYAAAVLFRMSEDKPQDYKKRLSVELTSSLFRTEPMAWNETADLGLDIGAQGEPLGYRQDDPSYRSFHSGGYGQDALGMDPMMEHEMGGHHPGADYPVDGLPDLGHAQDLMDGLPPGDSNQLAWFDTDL

Binder | EC50
Ac-[αAllylPro]D[tBuAla][B5(19)]DDAAF[hSer][S8][Phe(2-Cl)][Bta]Q-NH2 (staple 1-4, 4-11) [I-1395] | 33 nM
Ac-[αAllylPro]D[tBuAla][B5(19)]DDAAF[hSer][S8][Phe(2-CF3)][Bta]Q-NH2 (staple 1-4, 4-11) [I-1397] | 48 nM

Molecular target: full-length beta-Catenin (Uniprot ID P35222) (Homo sapiens (Human)) (UniProt P35222)
Experiment: fluorescence polarization competition; full-length beta-catenin, competitor 5FAM-TCF4 10-53 probe
Target sequence in this assay (P35222 2-781 limits assumed): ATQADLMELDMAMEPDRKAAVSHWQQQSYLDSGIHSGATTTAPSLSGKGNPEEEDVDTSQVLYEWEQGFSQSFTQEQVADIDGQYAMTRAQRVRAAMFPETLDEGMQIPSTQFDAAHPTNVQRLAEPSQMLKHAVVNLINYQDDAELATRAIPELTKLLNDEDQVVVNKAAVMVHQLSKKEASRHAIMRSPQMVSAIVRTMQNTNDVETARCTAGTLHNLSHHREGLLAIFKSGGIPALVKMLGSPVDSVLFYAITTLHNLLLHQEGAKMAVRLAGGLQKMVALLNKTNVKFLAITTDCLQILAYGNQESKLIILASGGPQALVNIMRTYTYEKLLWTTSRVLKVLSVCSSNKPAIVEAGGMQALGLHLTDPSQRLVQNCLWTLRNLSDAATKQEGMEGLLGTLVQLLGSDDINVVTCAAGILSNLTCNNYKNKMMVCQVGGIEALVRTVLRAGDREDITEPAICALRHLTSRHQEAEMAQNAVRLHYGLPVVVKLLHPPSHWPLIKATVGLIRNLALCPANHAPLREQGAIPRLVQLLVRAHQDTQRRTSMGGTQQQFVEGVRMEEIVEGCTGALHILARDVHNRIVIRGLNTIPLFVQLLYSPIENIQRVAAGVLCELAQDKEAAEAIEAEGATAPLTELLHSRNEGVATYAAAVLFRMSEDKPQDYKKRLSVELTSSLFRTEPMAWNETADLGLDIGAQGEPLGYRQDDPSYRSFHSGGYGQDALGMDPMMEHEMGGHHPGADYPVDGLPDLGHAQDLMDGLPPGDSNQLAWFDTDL

Binder | IC50
Ac-[αAllylPro]D[Nle][B5(12)]DDAAFL[PyrS2″][3Thi][Bta]L-NH2 (staple 1-4, 4-11; also: staple isomer, earlier eluting HPLC peak) [I-1411] | 109 nM
Ac-[αAllylPro]DL[B5(12)]D[Phe(3-COOH)]AAFL[PyrS2″][3Thi][Bta]Q-NH2 (staple 1-4, 4-11) [I-1406] | 6 nM
Ac-[αAllylPro]DL[B5(12)]DDAAFL[PyrS2″][3Thi][Bta]L-NH2 (staple 1-4, 4-11) [I-1410] | 80 nM
Ac-[αAllylPro]D[tBuAla][B5(12)]DDAAFL[PyrS2″][3Thi][Bta]L-NH2 (staple 1-4, 4-11) [I-1409] | 74 nM
Ac-[αAllylPro]D[tBuAla][B5(19)]DDAAF[hSer][S8][Phe(2-Cl)][Bta]Q-NH2 (staple 1-4, 4-11) [I-1395] | 33 nM
Ac-[αAllylPro]DL[B5(12)]D[Phe(3-COOH)]AAF[Nle][PyrS2″][3Thi][Bta]Q-NH2 (staple 1-4, 4-11) [I-1407] | 5 nM
Ac-[αAllylPro]D[Nle][B5(12)]DDAAFL[PyrS2″][3Thi][Bta]L-NH2 (staple 1-4, 4-11) [I-1412] | 79 nM
Ac-[αAllylPro]D[tBuAla][B5(19)]DDAAF[hSer][S8][Phe(2-CF3)][Bta]Q-NH2 (staple 1-4, 4-11) [I-1397] | 48 nM

Molecular target: Bcat-Halo (UniProt P35222)
Sequence (P35222 whole entry): as the sequence (P35222 whole entry, one chain of several) above
Experiment: NanoBRET Abs IC50, HEK293 cells; Bcat-Halo / TCF4-Luc engagement

Binder | IC50
Ac-[αAllylPro]D[tBuAla][B5(5)]D[Phe(3-COOH)]AAFL[PyrS2][Phe(2-CF3)][Bta]QLR-NH2 (staple 1-4, 4-11) [I-2393] | > 20000 nM
Ac-[αAllylPro]D[tBuAla][B5(5)]D[Phe(3-COOH)]AAFL[PyrS2][Phe(2-CF3)][Bta]QL[Nle]-NH2 (staple 1-4, 4-11) [I-2391] | 8200 nM
Ac-[αAllylPro]D[tBuAla][B5(5)]D[Phe(3-COOH)]AAFL[PyrS2″][Phe(2-CF3)][Bta]QLL-NH2 (staple 1-4, 4-11) [I-2380] | 2700 nM
Ac-[αAllylPro]D[tBuAla][B5(5)]D[Phe(3-COOH)]AAFL[PyrS2][Phe(2-CF3)][Bta]QLN-NH2 (staple 1-4, 4-11) [I-2390] | 9100 nM
Ac-[αAllylPro]D[tBuAla][B5(5)]D[Phe(3-COOH)]AAFL[PyrS2″][Phe(2-CF3)][Bta]QL[Gly(cBu)]-NH2 (staple 1-4, 4-11) [I-2388] | 5700 nM
Ac-[αAllylPro]D[tBuAla][B5(5)]D[Phe(3-COOH)]AAFL[PyrS2″][Phe(2-CF3)][Bta]QLT-NH2 (staple 1-4, 4-11) [I-2383] | 4200 nM
Ac-[αAllylPro]D[tBuAla][B5(5)]D[Phe(3-COOH)]AAFL[PyrS2″][Phe(2-CF3)][Bta]QLS-NH2 (staple 1-4, 4-11) [I-2384] | 4600 nM

Molecular target: full-length beta-Catenin (Uniprot ID P35222) (Homo sapiens (Human)) (UniProt P35222)
Experiment: cell-based or functional assay
Target sequence in this assay (P35222 2-781 limits assumed): as the sequence (P35222 2-781 limits assumed) above

Binder | DLD1 4% Abs IC50
Ac-[αAllylPro]D[tBuAla][B5(5)]D[Phe(3-COOH)]AAFL[PyrS2][Phe(2-CF3)][Bta]QLR-NH2 (staple 1-4, 4-11) [I-2393] | 5600 nM
Ac-[αAllylPro]D[tBuAla][B5(5)]D[Phe(3-COOH)]AAFL[PyrS2][Phe(2-CF3)][Bta]QL[Nle]-NH2 (staple 1-4, 4-11) [I-2391] | 700 nM
Ac-[αAllylPro]D[tBuAla][B5(5)]D[Phe(3-COOH)]AAFL[PyrS2″][Phe(2-CF3)][Bta]QLL-NH2 (staple 1-4, 4-11) [I-2380] | 1500 nM
Ac-[αAllylPro]D[tBuAla][B5(5)]D[Phe(3-COOH)]AAFL[PyrS2][Phe(2-CF3)][Bta]QLN-NH2 (staple 1-4, 4-11) [I-2390] | 1400 nM
Ac-[αAllylPro]D[tBuAla][B5(5)]D[Phe(3-COOH)]AAFL[PyrS2″][Phe(2-CF3)][Bta]QL[Gly(cBu)]-NH2 (staple 1-4, 4-11) [I-2388] | 1200 nM
Ac-[αAllylPro]D[tBuAla][B5(5)]D[Phe(3-COOH)]AAFL[PyrS2″][Phe(2-CF3)][Bta]QLT-NH2 (staple 1-4, 4-11) [I-2383] | 800 nM
Ac-[αAllylPro]D[tBuAla][B5(5)]D[Phe(3-COOH)]AAFL[PyrS2″][Phe(2-CF3)][Bta]QLS-NH2 (staple 1-4, 4-11) [I-2384] | 1100 nM

Molecular target: beta-catenin (Homo sapiens (Human)) (UniProt P35222)
Sequence (P35222 whole entry): as the sequence (P35222 whole entry, one chain of several) above
Experiment: fluorescence polarization competition; full-length beta-catenin with 5FAM-TCF4(10-53) probe as competitor

Binder | EC50
Ac-[αAllylPro]D[Nle][B5(12)]DDAAFL[PyrS2″][3Thi][Bta]L-NH2 (staple 1-4, 4-11; also: staple isomer, earlier eluting HPLC peak) [I-1411] | 109 nM
Ac-[αAllylPro]DL[B5(12)]D[Phe(3-COOH)]AAFL[PyrS2″][3Thi][Bta]Q-NH2 (staple 1-4, 4-11) [I-1406] | 6 nM
Ac-[αAllylPro]DL[B5(12)]DDAAFL[PyrS2″][3Thi][Bta]L-NH2 (staple 1-4, 4-11) [I-1410] | 80 nM
Ac-[αAllylPro]D[tBuAla][B5(12)]DDAAFL[PyrS2″][3Thi][Bta]L-NH2 (staple 1-4, 4-11) [I-1409] | 74 nM
Ac-[αAllylPro]DL[B5(12)]D[Phe(3-COOH)]AAF[Nle][PyrS2″][3Thi][Bta]Q-NH2 (staple 1-4, 4-11) [I-1407] | 5 nM
Ac-[αAllylPro]D[Nle][B5(12)]DDAAFL[PyrS2″][3Thi][Bta]L-NH2 (staple 1-4, 4-11) [I-1412] | 79 nM

Molecular target: Bcat-Halo (beta-catenin HaloTag construct expressed in HEK293 cells) (UniProt P35222)
Sequence (P35222 whole entry): as the sequence (P35222 whole entry, one chain of several) above
Experiment: NanoBRET Abs IC50 in HEK293 cells; B-cat-Halo with competitor TCF4-Luc

Binder | IC50
Ac-[αAllylPro]D[Nle][B5(12)]DDAAFL[PyrS2″][3Thi][Bta]L-NH2 (staple 1-4, 4-11; also: staple isomer, earlier eluting HPLC peak) [I-1411] | 47100 nM
Ac-[αAllylPro]DL[B5(12)]D[Phe(3-COOH)]AAFL[PyrS2″][3Thi][Bta]Q-NH2 (staple 1-4, 4-11) [I-1406] | 5000 nM
Ac-[αAllylPro]DL[B5(12)]DDAAFL[PyrS2″][3Thi][Bta]L-NH2 (staple 1-4, 4-11) [I-1410] | 29300 nM
Ac-[αAllylPro]D[tBuAla][B5(12)]DDAAFL[PyrS2″][3Thi][Bta]L-NH2 (staple 1-4, 4-11) [I-1409] | 24000 nM
Ac-[αAllylPro]D[tBuAla][B5(19)]DDAAF[hSer][S8][Phe(2-Cl)][Bta]Q-NH2 (staple 1-4, 4-11) [I-1395] | 15400 nM
Ac-[αAllylPro]DL[B5(12)]D[Phe(3-COOH)]AAF[Nle][PyrS2″][3Thi][Bta]Q-NH2 (staple 1-4, 4-11) [I-1407] | 4200 nM
Ac-[αAllylPro]D[Nle][B5(12)]DDAAFL[PyrS2″][3Thi][Bta]L-NH2 (staple 1-4, 4-11) [I-1412] | > 20000 nM
Ac-[αAllylPro]D[tBuAla][B5(19)]DDAAF[hSer][S8][Phe(2-CF3)][Bta]Q-NH2 (staple 1-4, 4-11) [I-1397] | 16400 nM

Molecular target: full-length beta-Catenin (Uniprot ID P35222) (Homo sapiens (Human)) (UniProt P35222)
Experiment: fluorescence polarization competition; full-length beta-catenin, competitor 5FAM-TCF4(10-53)
Target sequence in this assay (P35222 2-781 limits assumed): as the sequence (P35222 2-781 limits assumed) above

Binder | IC50
Ac-[αAllylPro]D[tBuAla][B5(5)]D[Phe(3-COOH)]AAFL[PyrS2][Phe(2-CF3)][Bta]QLR-NH2 (staple 1-4, 4-11) [I-2393] | 61 nM
Ac-[αAllylPro]D[tBuAla][B5(5)]D[Phe(3-COOH)]AAFL[PyrS2][Phe(2-CF3)][Bta]QL[Nle]-NH2 (staple 1-4, 4-11) [I-2391] | 110 nM
Ac-[αAllylPro]D[tBuAla][B5(5)]D[Phe(3-COOH)]AAFL[PyrS2″][Phe(2-CF3)][Bta]QLL-NH2 (staple 1-4, 4-11) [I-2380] | 330 nM
Ac-[αAllylPro]D[tBuAla][B5(5)]D[Phe(3-COOH)]AAFL[PyrS2][Phe(2-CF3)][Bta]QLN-NH2 (staple 1-4, 4-11) [I-2390] | 22 nM
Ac-[αAllylPro]D[tBuAla][B5(5)]D[Phe(3-COOH)]AAFL[PyrS2″][Phe(2-CF3)][Bta]QL[Gly(cBu)]-NH2 (staple 1-4, 4-11) [I-2388] | 133 nM
Ac-[αAllylPro]D[tBuAla][B5(5)]D[Phe(3-COOH)]AAFL[PyrS2″][Phe(2-CF3)][Bta]QLT-NH2 (staple 1-4, 4-11) [I-2383] | 77 nM
Ac-[αAllylPro]D[tBuAla][B5(5)]D[Phe(3-COOH)]AAFL[PyrS2″][Phe(2-CF3)][Bta]QLS-NH2 (staple 1-4, 4-11) [I-2384] | 5 nM

Reference: patent US20240116985A1, “STAPLED PEPTIDES AND METHODS THEREOF” (priority 2020, published 2024)
